{"source": "patent US20120114557A1", "binders": {"B1": {"name": "SEQ ID NO: 179 (peptide)", "peptide": "DWTCS[dA]DEYTWHCNYE", "modifications": "disulfide 4-13 (inferred); not fully specified (C-terminus); printed as D W T C S a D E Y T W H C N Y E"}, "B2": {"name": "SEQ ID NO: 180 (peptide)", "peptide": "DWTCS[dS]DEYTWHCNYE", "modifications": "disulfide 4-13 (inferred); not fully specified (C-terminus); printed as D W T C S s D E Y T W H C N Y E"}, "B3": {"name": "SEQ ID NO: 181 (peptide)", "peptide": "DWTCS[dR]DEYTWHCNYE", "modifications": "disulfide 4-13 (inferred); not fully specified (C-terminus); printed as D W T C S r D E Y T W H C N Y E"}, "B4": {"name": "SEQ ID NO: 182 (peptide)", "peptide": "DWTCS[dY]DEYTWHCNYE", "modifications": "disulfide 4-13 (inferred); not fully specified (C-terminus); printed as D W T C S y D E Y T W H C N Y E"}, "B5": {"name": "SEQ ID NO: 183 (peptide)", "peptide": "DWTCS[dL]DEYTWHCNYE", "modifications": "disulfide 4-13 (inferred); not fully specified (C-terminus); printed as D W T C S l D E Y T W H C N Y E"}}, "note": "Bridge positions count the residues as written; N and C are the ends. Square brackets hold non-standard residues; d marks the D form. Ends that are not written are not given here. NMeA = CN[C@@H](C)C(=O)O; Sar = CNCC(=O)O"}
{"molecular_target": "rat collagen type I (rat) (UniProt P02454)", "sequence (P02454 152-1207, chain 1 of 2)": "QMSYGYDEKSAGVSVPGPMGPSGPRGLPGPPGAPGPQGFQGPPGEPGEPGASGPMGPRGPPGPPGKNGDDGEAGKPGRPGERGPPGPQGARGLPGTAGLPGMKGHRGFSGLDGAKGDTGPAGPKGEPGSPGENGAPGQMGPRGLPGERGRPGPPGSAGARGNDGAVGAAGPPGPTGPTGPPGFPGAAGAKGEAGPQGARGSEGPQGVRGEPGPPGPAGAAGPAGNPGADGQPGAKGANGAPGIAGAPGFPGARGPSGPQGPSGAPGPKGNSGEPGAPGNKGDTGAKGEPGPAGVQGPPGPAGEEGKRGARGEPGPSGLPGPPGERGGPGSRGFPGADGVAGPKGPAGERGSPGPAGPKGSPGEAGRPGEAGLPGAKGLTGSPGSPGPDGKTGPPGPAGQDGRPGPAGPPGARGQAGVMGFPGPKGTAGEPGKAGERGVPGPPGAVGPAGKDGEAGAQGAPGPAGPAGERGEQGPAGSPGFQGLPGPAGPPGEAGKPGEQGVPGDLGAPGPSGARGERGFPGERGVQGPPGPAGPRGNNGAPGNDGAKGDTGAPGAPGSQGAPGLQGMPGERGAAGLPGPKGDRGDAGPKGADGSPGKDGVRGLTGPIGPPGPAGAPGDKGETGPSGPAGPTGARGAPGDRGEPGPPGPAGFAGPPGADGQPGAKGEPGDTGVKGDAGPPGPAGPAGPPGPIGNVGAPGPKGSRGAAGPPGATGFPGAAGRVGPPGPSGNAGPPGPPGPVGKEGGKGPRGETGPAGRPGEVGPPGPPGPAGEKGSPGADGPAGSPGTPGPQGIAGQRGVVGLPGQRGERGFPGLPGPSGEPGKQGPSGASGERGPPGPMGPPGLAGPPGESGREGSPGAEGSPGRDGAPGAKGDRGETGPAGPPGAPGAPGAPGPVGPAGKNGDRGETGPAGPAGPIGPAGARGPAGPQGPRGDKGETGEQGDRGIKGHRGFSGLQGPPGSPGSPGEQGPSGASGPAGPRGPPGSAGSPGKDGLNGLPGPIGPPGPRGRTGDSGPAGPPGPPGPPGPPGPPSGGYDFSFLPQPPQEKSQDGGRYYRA", "sequence (P02466 86-1125, chain 2 of 2, further chain)": "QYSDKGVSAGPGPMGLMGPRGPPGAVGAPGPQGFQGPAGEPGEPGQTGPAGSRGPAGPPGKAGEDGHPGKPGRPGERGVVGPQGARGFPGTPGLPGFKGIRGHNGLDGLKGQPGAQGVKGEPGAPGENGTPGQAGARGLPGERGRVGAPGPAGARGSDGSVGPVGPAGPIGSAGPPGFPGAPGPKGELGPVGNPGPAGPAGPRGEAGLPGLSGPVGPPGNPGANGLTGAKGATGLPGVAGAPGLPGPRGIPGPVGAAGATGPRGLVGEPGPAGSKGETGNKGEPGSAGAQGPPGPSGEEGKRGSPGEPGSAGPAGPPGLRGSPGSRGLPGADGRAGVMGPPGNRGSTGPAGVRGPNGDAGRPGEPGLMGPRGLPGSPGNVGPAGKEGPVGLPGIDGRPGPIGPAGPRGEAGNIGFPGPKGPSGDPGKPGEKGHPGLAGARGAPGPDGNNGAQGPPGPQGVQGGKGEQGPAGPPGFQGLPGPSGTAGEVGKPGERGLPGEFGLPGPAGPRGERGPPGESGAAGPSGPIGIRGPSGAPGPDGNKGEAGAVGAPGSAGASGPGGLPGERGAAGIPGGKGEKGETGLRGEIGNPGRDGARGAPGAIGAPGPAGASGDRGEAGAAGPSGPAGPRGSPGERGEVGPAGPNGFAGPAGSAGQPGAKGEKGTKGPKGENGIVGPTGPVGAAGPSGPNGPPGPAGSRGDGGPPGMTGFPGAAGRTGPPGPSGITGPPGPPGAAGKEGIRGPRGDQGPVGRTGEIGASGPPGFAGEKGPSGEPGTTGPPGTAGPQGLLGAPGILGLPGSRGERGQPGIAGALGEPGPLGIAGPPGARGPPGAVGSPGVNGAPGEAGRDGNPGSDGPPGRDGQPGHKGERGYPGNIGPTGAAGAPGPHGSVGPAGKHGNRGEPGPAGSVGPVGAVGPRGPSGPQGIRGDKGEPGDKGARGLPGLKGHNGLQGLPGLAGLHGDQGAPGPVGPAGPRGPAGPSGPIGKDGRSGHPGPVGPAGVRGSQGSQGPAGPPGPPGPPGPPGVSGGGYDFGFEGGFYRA", "assay": "dried collagen assay, 5 uM peptide", "units": {"% Collagen Binding, Dried Rat": "%"}}
{"binder": "YHACYQA[Sar]CWIW (disulfide 4-9 (inferred))", "note": "[SEQ ID NO: 104]", "% Collagen Binding, Dried Rat": 19}
{"binder": "YHACYQ[NMeA]GCWIW (disulfide 4-9 (inferred))", "note": "[SEQ ID NO: 105]", "% Collagen Binding, Dried Rat": 23}
{"binder": "YHACYQAGCYIW (disulfide 4-9 (inferred))", "note": "[SEQ ID NO: 107]", "% Collagen Binding, Dried Rat": 6}
{"binder": "YHACYQAGCWAW (disulfide 4-9 (inferred))", "note": "[SEQ ID NO: 137]", "% Collagen Binding, Dried Rat": 7}
{"binder": "GQWTCSADEYTWHCNYE (disulfide 5-14 (inferred))", "note": "[SEQ ID NO: 142]", "% Collagen Binding, Dried Rat": 6}
{"binder": "Y[dH]ACYQAGCWIW (disulfide 4-9 (inferred))", "note": "[SEQ ID NO: 153]", "% Collagen Binding, Dried Rat": 0}
{"binder": "YH[dA]CYQAGCWIW (disulfide 4-9 (inferred))", "note": "[SEQ ID NO: 154]", "% Collagen Binding, Dried Rat": 21}
{"binder": "YHAC[dY]QAGCWIW (disulfide 4-9 (inferred))", "note": "[SEQ ID NO: 156]", "% Collagen Binding, Dried Rat": 48}
{"binder": "YHACY[dQ]AGCWIW (disulfide 4-9 (inferred))", "note": "[SEQ ID NO: 157]", "% Collagen Binding, Dried Rat": 35}
{"binder": "YHACYQ[dA]GCWIW (disulfide 4-9 (inferred))", "note": "[SEQ ID NO: 158]", "% Collagen Binding, Dried Rat": 66}
{"binder": "YHACYQAGC[dW]IW (disulfide 4-9 (inferred))", "note": "[SEQ ID NO: 160]", "% Collagen Binding, Dried Rat": 12}
{"binder": "YHACYQAGCW[dI]W (disulfide 4-9 (inferred))", "note": "[SEQ ID NO: 161]", "% Collagen Binding, Dried Rat": 10}
{"binder": "YHACYQAGCWI[dW] (disulfide 4-9 (inferred))", "note": "[SEQ ID NO: 162]", "% Collagen Binding, Dried Rat": 14}
{"binder": "G[dQ]WTCSGDEYTWHCNYE (disulfide 5-14 (inferred))", "note": "[SEQ ID NO: 164]", "% Collagen Binding, Dried Rat": 31}
{"binder": "GQ[dW]TCSGDEYTWHCNYE (disulfide 5-14 (inferred))", "note": "[SEQ ID NO: 165]", "% Collagen Binding, Dried Rat": 4}
{"binder": "GQW[dT]CSGDEYTWHCNYE (disulfide 5-14 (inferred))", "note": "[SEQ ID NO: 166]", "% Collagen Binding, Dried Rat": 3}
{"binder": "GQWTC[dS]GDEYTWHCNYE (disulfide 5-14 (inferred))", "note": "[SEQ ID NO: 168]", "% Collagen Binding, Dried Rat": 2}
{"binder": "GQWTCSG[dD]EYTWHCNYE (disulfide 5-14 (inferred); not fully specified (C-terminus))", "note": "[SEQ ID NO: 169]", "% Collagen Binding, Dried Rat": 4}
{"binder": "GQWTCSGD[dE]YTWHCNYE (disulfide 5-14 (inferred); not fully specified (C-terminus))", "note": "[SEQ ID NO: 170]", "% Collagen Binding, Dried Rat": 35}
{"binder": "GQWTCSGDE[dY]TWHCNYE (disulfide 5-14 (inferred); not fully specified (C-terminus))", "note": "[SEQ ID NO: 171]", "% Collagen Binding, Dried Rat": 6}
{"binder": "GQWTCSGDEY[dT]WHCNYE (disulfide 5-14 (inferred); not fully specified (C-terminus))", "note": "[SEQ ID NO: 172]", "% Collagen Binding, Dried Rat": 8}
{"binder": "GQWTCSGDEYT[dW]HCNYE (disulfide 5-14 (inferred); not fully specified (C-terminus))", "note": "[SEQ ID NO: 173]", "% Collagen Binding, Dried Rat": 4}
{"binder": "GQWTCSGDEYTW[dH]CNYE (disulfide 5-14 (inferred); not fully specified (C-terminus))", "note": "[SEQ ID NO: 174]", "% Collagen Binding, Dried Rat": 0}
{"binder": "GQWTCSGDEYTWHC[dN]YE (disulfide 5-14 (inferred); not fully specified (C-terminus))", "note": "[SEQ ID NO: 176]", "% Collagen Binding, Dried Rat": 2}
{"binder": "GQWTCSGDEYTWHCN[dY]E (disulfide 5-14 (inferred); not fully specified (C-terminus))", "note": "[SEQ ID NO: 177]", "% Collagen Binding, Dried Rat": 27}
{"binder": "B1", "% Collagen Binding, Dried Rat": 75}
{"binder": "B2", "% Collagen Binding, Dried Rat": 72}
{"binder": "B3", "% Collagen Binding, Dried Rat": 86}
{"binder": "B4", "% Collagen Binding, Dried Rat": 86}
{"binder": "B5", "% Collagen Binding, Dried Rat": 63}
{"molecular_target": "human collagen type I (human) (UniProt P02452)", "sequence (P02452 162-1218 limits assumed, chain 1 of 2)": "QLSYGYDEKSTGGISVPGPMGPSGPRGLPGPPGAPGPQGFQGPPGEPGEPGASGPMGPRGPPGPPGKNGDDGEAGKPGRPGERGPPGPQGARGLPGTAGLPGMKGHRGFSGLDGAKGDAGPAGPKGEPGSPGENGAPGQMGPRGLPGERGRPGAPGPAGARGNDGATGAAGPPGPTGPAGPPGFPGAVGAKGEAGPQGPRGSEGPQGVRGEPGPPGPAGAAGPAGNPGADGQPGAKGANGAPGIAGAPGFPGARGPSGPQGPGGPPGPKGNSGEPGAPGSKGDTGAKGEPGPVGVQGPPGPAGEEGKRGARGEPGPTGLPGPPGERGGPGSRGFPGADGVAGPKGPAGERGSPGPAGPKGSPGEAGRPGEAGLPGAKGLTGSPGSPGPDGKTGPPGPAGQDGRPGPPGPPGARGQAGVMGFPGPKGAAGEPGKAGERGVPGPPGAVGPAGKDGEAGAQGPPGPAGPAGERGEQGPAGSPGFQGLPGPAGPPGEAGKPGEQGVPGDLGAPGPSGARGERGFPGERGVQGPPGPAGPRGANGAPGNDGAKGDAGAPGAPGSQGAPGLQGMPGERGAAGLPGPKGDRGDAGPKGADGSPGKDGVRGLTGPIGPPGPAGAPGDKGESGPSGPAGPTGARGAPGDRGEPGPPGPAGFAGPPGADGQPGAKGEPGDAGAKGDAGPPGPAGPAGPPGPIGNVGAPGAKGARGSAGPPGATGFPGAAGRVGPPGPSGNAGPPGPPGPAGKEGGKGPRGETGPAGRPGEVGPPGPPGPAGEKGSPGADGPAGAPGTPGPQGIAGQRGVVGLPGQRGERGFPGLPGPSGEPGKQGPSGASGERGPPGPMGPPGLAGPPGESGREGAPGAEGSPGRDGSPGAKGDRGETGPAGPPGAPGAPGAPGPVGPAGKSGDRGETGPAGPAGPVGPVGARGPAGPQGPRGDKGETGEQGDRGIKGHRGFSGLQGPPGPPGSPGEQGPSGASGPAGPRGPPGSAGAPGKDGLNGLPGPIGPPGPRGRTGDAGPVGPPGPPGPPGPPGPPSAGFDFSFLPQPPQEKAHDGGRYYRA", "sequence (P08123 80-1119 limits assumed, chain 2 of 2, further chain)": "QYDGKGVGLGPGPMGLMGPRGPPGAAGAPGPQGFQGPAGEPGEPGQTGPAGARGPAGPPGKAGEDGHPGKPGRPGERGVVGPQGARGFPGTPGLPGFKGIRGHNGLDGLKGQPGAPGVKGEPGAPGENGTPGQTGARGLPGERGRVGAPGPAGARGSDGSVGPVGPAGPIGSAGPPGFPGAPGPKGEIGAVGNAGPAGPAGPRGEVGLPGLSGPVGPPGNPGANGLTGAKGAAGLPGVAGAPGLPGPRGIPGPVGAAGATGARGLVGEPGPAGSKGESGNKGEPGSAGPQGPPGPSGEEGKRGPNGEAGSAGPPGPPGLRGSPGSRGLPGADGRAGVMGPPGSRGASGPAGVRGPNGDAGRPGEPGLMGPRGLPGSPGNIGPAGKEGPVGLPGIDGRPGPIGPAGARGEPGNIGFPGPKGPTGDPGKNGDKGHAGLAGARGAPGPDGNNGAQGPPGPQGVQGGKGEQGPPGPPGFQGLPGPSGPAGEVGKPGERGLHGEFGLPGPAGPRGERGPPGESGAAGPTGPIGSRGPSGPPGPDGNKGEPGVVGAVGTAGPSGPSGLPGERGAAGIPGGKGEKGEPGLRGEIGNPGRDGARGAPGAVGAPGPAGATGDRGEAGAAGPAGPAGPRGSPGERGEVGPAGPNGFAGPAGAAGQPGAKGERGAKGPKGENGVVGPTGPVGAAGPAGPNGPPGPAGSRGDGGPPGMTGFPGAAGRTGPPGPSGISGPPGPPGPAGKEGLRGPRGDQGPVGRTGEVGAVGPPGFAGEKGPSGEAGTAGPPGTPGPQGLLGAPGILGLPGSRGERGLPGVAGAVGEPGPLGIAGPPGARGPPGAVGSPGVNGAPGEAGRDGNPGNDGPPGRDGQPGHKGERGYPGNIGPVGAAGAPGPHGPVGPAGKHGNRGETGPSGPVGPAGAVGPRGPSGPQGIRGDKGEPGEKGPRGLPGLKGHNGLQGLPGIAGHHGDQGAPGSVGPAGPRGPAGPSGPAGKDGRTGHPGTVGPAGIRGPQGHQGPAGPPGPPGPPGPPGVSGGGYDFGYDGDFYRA", "assay": "dried collagen assay, 5 uM peptide", "units": {"% Collagen Binding, Dried Human": "%", "Dried Human Collagen Binding": "%"}}
{"binder": "YHACYQA[Sar]CWIW (disulfide 4-9 (inferred))", "note": "[SEQ ID NO: 104]", "% Collagen Binding, Dried Human": 12}
{"binder": "YHACYQ[NMeA]GCWIW (disulfide 4-9 (inferred))", "note": "[SEQ ID NO: 105]", "% Collagen Binding, Dried Human": 9}
{"binder": "Y[dH]ACYQAGCWIW (disulfide 4-9 (inferred))", "note": "[SEQ ID NO: 153]", "% Collagen Binding, Dried Human": 0}
{"binder": "YH[dA]CYQAGCWIW (disulfide 4-9 (inferred))", "note": "[SEQ ID NO: 154]", "% Collagen Binding, Dried Human": 24}
{"binder": "YHAC[dY]QAGCWIW (disulfide 4-9 (inferred))", "note": "[SEQ ID NO: 156]", "% Collagen Binding, Dried Human": 38}
{"binder": "YHACY[dQ]AGCWIW (disulfide 4-9 (inferred))", "note": "[SEQ ID NO: 157]", "% Collagen Binding, Dried Human": 37}
{"binder": "YHACYQ[dA]GCWIW (disulfide 4-9 (inferred))", "note": "[SEQ ID NO: 158]", "% Collagen Binding, Dried Human": 56}
{"binder": "PMICHAPYVGKCNFL (disulfide 4-12 (inferred))", "note": "[SEQ ID NO: 12]", "Dried Human Collagen Binding": 7}
{"binder": "YHACYQAGC[dW]IW (disulfide 4-9 (inferred))", "note": "[SEQ ID NO: 160]", "% Collagen Binding, Dried Human": 20}
{"binder": "YHACYQAGCW[dI]W (disulfide 4-9 (inferred))", "note": "[SEQ ID NO: 161]", "% Collagen Binding, Dried Human": 8}
{"binder": "YHACYQAGCWI[dW] (disulfide 4-9 (inferred))", "note": "[SEQ ID NO: 162]", "% Collagen Binding, Dried Human": 18}
{"binder": "G[dQ]WTCSGDEYTWHCNYE (disulfide 5-14 (inferred))", "note": "[SEQ ID NO: 164]", "% Collagen Binding, Dried Human": 46}
{"binder": "GQ[dW]TCSGDEYTWHCNYE (disulfide 5-14 (inferred))", "note": "[SEQ ID NO: 165]", "% Collagen Binding, Dried Human": 2}
{"binder": "GQW[dT]CSGDEYTWHCNYE (disulfide 5-14 (inferred))", "note": "[SEQ ID NO: 166]", "% Collagen Binding, Dried Human": 2}
{"binder": "GQWTC[dS]GDEYTWHCNYE (disulfide 5-14 (inferred))", "note": "[SEQ ID NO: 168]", "% Collagen Binding, Dried Human": 3}
{"binder": "GQWTCSG[dD]EYTWHCNYE (disulfide 5-14 (inferred); not fully specified (C-terminus))", "note": "[SEQ ID NO: 169]", "% Collagen Binding, Dried Human": 11}
{"binder": "GQWTCSGD[dE]YTWHCNYE (disulfide 5-14 (inferred); not fully specified (C-terminus))", "note": "[SEQ ID NO: 170]", "% Collagen Binding, Dried Human": 49}
{"binder": "GQWTCSGDE[dY]TWHCNYE (disulfide 5-14 (inferred); not fully specified (C-terminus))", "note": "[SEQ ID NO: 171]", "% Collagen Binding, Dried Human": 13}
{"binder": "GQWTCSGDEY[dT]WHCNYE (disulfide 5-14 (inferred); not fully specified (C-terminus))", "note": "[SEQ ID NO: 172]", "% Collagen Binding, Dried Human": 9}
{"binder": "GQWTCSGDEYT[dW]HCNYE (disulfide 5-14 (inferred); not fully specified (C-terminus))", "note": "[SEQ ID NO: 173]", "% Collagen Binding, Dried Human": 5}
{"binder": "GQWTCSGDEYTW[dH]CNYE (disulfide 5-14 (inferred); not fully specified (C-terminus))", "note": "[SEQ ID NO: 174]", "% Collagen Binding, Dried Human": 5}
{"binder": "GQWTCSGDEYTWHC[dN]YE (disulfide 5-14 (inferred); not fully specified (C-terminus))", "note": "[SEQ ID NO: 176]", "% Collagen Binding, Dried Human": 2}
{"binder": "GQWTCSGDEYTWHCN[dY]E (disulfide 5-14 (inferred); not fully specified (C-terminus))", "note": "[SEQ ID NO: 177]", "% Collagen Binding, Dried Human": 30}
{"binder": "B1", "% Collagen Binding, Dried Human": 81}
{"binder": "B2", "% Collagen Binding, Dried Human": 81}
{"binder": "B3", "% Collagen Binding, Dried Human": 87}
{"binder": "B4", "% Collagen Binding, Dried Human": 89}
{"binder": "B5", "% Collagen Binding, Dried Human": 73}
